Experimental data published in the supplement of paper PMC11780869.

Tested on: Bacillus subtilis
Experiment: cleaved RNA product abundance (RNA/gDNA barcode ratio) relative to median wild-type variant (ratio to wild type); higher = more accumulation of the downstream cleavage product
How it was run: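 Oligos with a 9% error rate were used to build barcoded, mutagenized RNase Y cleavage-site windows within truncated aprE or tetM reporter mRNAs, which were integrated into the B. subtilis chromosome. Cultures were grown in LB at 37°C between OD600 0.0003 and 0.3. Cleaved RNA was gel-selected, reverse transcribed and barcode-sequenced, as were genomic DNA barcodes, and UMIs were collapsed. Cleaved product abundance is the scaled RNA:gDNA barcode ratio, with the median construct carrying the unmutated site as reference.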

[1] = experiment (reporter, strain, medium): exp 4a: truncated aprE reporter, strain BJT201 with 2% xylose (RNase J1 expressed), cleavage site: cggR-gapA (positions -7 to +36 mutated)
[2] = experiment (reporter, strain, medium): exp 2b: truncated aprE reporter, strain BJT200, cleavage site: cggR-gapA (positions -7 to +36 mutated)
[3] = experiment (reporter, strain, medium): exp 8a: truncated aprE reporter, strain BJT201 with 2% xylose (RNase J1 expressed), cleavage site: glnRA (positions -5 to +31 mutated)
[4] = experiment (reporter, strain, medium): exp 6: tetM reporter, strain 168, cleavage site: cggR-gapA (positions -7 to +36 mutated)

Sequence | cleaved RNA product abundance [1] | cleaved RNA product abundance [2] | other results
ACAGACGAAGGAGCCGCAAAGAAGTTATTAAGGGATGAGTAATTCCTCAATATAAATATCTCTCACTTATTTAAA | 0.452 |  | 
ACAGACGAAGGAGCCGCAAAGAAGTTAGTAAGGGAGGAATAATCCCTCAATATAAATATCTCTCACTTATTTAAA | 0.199 | 0.123 | 
ACAGACGAAGGAGCCGCAAAGAAGTTATTACGGGATGAATAATCCCTCGATATAAATATCTCTCACTTATTTAAA | 0.259 |  | 
ACAGACGAAGGAGCCGCAAAGAAGATATAAAGGGATGAATAATCCCTCAATATAAATATCTCTCACTTATTTAAA | 0.514 | 0.272 | 
ACAGACGAAGGAGCCGCAAAGAAGCTATTAATGGATGAATAATCCCTCAATATAAATATCTCTCACTTATTTAAA | 0.123 |  | 
ACAGACGAAGGAGCCGCAAAGAAGTTATTAAGGGATGATTAATCCCTAAATATAAATATCTCTCACTTATTTAAA | 0.599 |  | 
ACAGACGAAGGAGCCGCAAAGAAGTAATTAAGGGATGAATAATCCTTCAATATAAATATCTCTCACTTATTTAAA | 0.187 | 0.188 | 
CGACATGTCCCGCTTCTTTCATTAAACCGTTAGCAACTGTTTTGCTATATACATTTACTTTTTAAGAGGAGGAAT |  |  | cleaved RNA product abundance [3]: 0.665
ACAGACGAAGGAGCCGCAAAGAAGATATTAAGGTATGAATAATCCCTCAATATAAATATCTCTCACTTATTTAAA | 0.117 | 0.104 | 
CGACATGTCCCGCTTCTTTCATTAATCCGTCAGCAACTGTTTAGCTATATACATTTACCTTTTAAGAGGAGGAAT |  |  | cleaved RNA product abundance [3]: 0.305
ACAGACGAAGGAGCCGCAAAGAAGTTATTAAGGTATGAATAATCCCGCAATATAAATATCTCTCACTTATTTAAA | 0.0533 |  | 
ACAGACGAAGGAGCCGCAAAGAAGTTATTAAGGTATGAATAATCCCCCAATATAAATATCTCTCACTTATTTAAA | 0.141 |  | 
CGACATGTCCCGCTTCTTTCATTAATCCGTTAGAAACTGTTTTGCTAAATACATTTACCTTTTAAGAGGAGGAAT |  |  | cleaved RNA product abundance [3]: 0.241
ACAGACGAAGGAGCCGCAAAGAAGTTATTAAGGGATGAATAATGCCTCAATATAAATATCTCTCACTTATTTAAA | 0.17 | 0.129 | cleaved RNA product abundance [4]: 0.128
ACAGACGAAGGAGCCGCAGAGAAGTTATTAAGGTATGAATAATCCCTCAATATAAATATCTCTCACTTATTTAAA | 0.137 |  | 
ACAGACGAAGGAGCCGCAAAGAAGTCATTAACGGATGAATAATCCCTCAATATAAATATCTCTCACTTATTTAAA | 0.128 |  | 
CGACATGTCCCGCTTCTTTCATTAATCCGTTACCATCTGTTTTGCTATATACATTTACCTTTTAAGAGGAGGAAT |  |  | cleaved RNA product abundance [3]: 0.163
ACAGACGAAGGAGCCGCAAAGAAGTTATTAAGGGTTGAATGATCCCTCAATATAAATATCTCTCACTTATTTAAA |  | 0.298 | 
CGACATGTCCCGCTTCTTTCATTAATCCGTTAGCAACTGTTTTGCGATATACATTTACTTTTTAAGAGGAGGAAT |  |  | cleaved RNA product abundance [3]: 0.55
ACAGACGAAGGAGCCGCAAAGAAGTTCTTAAGGGATGAATAATCCCTCAATATAAAAATCTCTCACTTATTTAAA |  | 0.181 | 
ACAGACGAAGGAGCCGCAAAGAAGTTATTAAGGGATGATTAATCCATCAATATAAATATCTCTCACTTATTTAAA |  | 0.124 | 

Sequence | cleaved RNA product abundance [1] | cleaved RNA product abundance [2] | other results
ACAGACGAAGGAGCCGCAAAGAAGTTCTTAATGGATGAATAATCCCTCAATATAAATATCTCTCACTTATTTAAA | 0.119 |  | 
ACAGACGAAGGAGCCGCACAGAAGTTATTAAGGGATGAATAATCCCTCAATATAAAGATCTCTCACTTATTTAAA | 0.549 |  | 
ACAGACGAAGGAGCCGCAAAGAAGTTATTAAGGAATGAATAGTCCCTCAATATAAATATCTCTCACTTATTTAAA | 0.114 | 0.101 | 
ACAGACGAAGGAGCCGCAAAGAAGTGATTAAGCGATGAATAATCCCTCAATATAAATATCTCTCACTTATTTAAA | 0.131 | 0.115 | 
ACAGACGAAGGAGCCGCAAAGAAGTTATTAAGGTATGAATAATCACTCAATATAAATATCTCTCACTTATTTAAA | 0.142 |  | 
ACAGACGAAGGAGCCGCAAAGAAGTTATTAAGAGATGAATAACCCCTCAATATAAATATCTCTCACTTATTTAAA | 0.147 |  | 
CGACATGTCCCGCTTCTTTCATTAATCCGTTAGCAACTGTTTTGATATATACATATACCTTTTAAGAGGAGGAAT |  |  | cleaved RNA product abundance [3]: 0.572
ACAGACGAAGGAGCCGCAAAGAAGTTATTAAGGGATGAATAATTCCTCAATATAAAAATCTCTCACTTATTTAAA | 0.86 |  | 
CGACATGTCCCGCTTCTTTCATTAATCCGTTAACAACTGTTTTTCTATATACATTTACCTTTTAAGAGGAGGAAT |  |  | cleaved RNA product abundance [3]: 0.258
ACAGACGAAGGAGCCGCAAAGAAGTTAATAAGAGATGAATAATCCCTCAATATAAATATCTCTCACTTATTTAAA | 0.133 |  | 
ACAGACGAAGGAGCCGCAAAGAATTTATTAAGGGATGAATAATACCTCAATATAAATATCTCTCACTTATTTAAA | 0.177 | 0.105 | 
CGACATGTCCCGCTTCTTTCATTAATCCGTTAGCAACTGTTTTGCTATATACTTATACCTTTTAAGAGGAGGAAT |  |  | cleaved RNA product abundance [3]: 0.926
ACAGACGAAGGAGCCGCAAATAAGTTATTAAGGGATGAATAATCACTCAATATAAATATCTCTCACTTATTTAAA | 0.107 | 0.118 | 
ACAGACGAAGGAGCCGCATAGAAGTTATTAAGGGATTAATAATCCCTCAATATAAATATCTCTCACTTATTTAAA | 1.38 | 1 | 
ACAGACGAAGGAGCCGCAAAGAAGTTATTATCGGATGAATAATCCCTCAATATAAATATCTCTCACTTATTTAAA | 0.178 |  | 
CGACATGTCCCGCTTCTTTCATTAATCCGTTAGCAACTGATTTGCCATATACATTTACCTTTTAAGAGGAGGAAT |  |  | cleaved RNA product abundance [3]: 0.226
ACAGACGAAGGAGCCGCTAAGAAGTTATTAAGGGATGAATAATCTCTCAATATAAATATCTCTCACTTATTTAAA | 1.12 |  | 
CGACATGTCCCGCTTCTTTCATTAATCCGTTAACAACTGTTATGCTATATACATTTACCTTTTAAGAGGAGGAAT |  |  | cleaved RNA product abundance [3]: 0.219
ACAGACGAAGGAGCCGCAAAGAAGTTATTAAGGGATGAATAATACCTCAATATAAATATCTCTCACTTATTTAAA | 0.152 | 0.117 | cleaved RNA product abundance [4]: 0.151
ACAGACGAAGGAGCCGCAAAGAAGTTATTAAGAGATGAATAATCCTTCAATATAAATATCTCTCACTTATTTAAA | 0.211 | 0.105 | 
CGACATGTCCCGCTTCTTTCATTAATCCGTTAGCAACTGTTTTGCTACATACAATTACCTTTTAAGAGGAGGAAT |  |  | cleaved RNA product abundance [3]: 0.348

Sequence | cleaved RNA product abundance [1] | cleaved RNA product abundance [2] | other results
ACAGACGAAGGAGCCGCAAAGAAGTTATTAAAGGATGGATAATCCCTCAATATAAATATCTCTCACTTATTTAAA | 0.141 |  | 
CGACATGTCCCGCTTCTTTCATTATTCCGTTAGCAACTTTTTTGCTATATACATTTACCGTTTAAGAGGAGGAAT |  |  | cleaved RNA product abundance [3]: 2.31
ACAGACGAAGGAGCCGCAAAGAAGTTATTAAGGGATGAATAATCGCACAATATAAATATCTCTCACTTATTTAAA | 0.0643 |  | 
ACAGACGAAGGAGCCGCAAAAAAGTTATTAAGAGATAAATAATCCCTCAATATAAATATCTCTCACTTATTTAAA | 0.0994 |  | 
ACAGACGAAGGAGCCGCAAAGAAGTTATTAAGGGATGAATAATCCATCAACATAAATATCTCTCACTTATTTAAA |  | 0.164 | 
CGACATGTCCCGCTTCTTTCATTAATCCGTTATCAACTGTTTTGCTATATATATTTACCTTTTAAGAGGAGGAAT |  |  | cleaved RNA product abundance [3]: 0.288
ACAGACGAAGGAGCCGCCAAGAAGTTATTAAGGGATTAATAATCCCTCAATATAAATATCTCTCACTTATTTAAA | 0.726 |  | 
ACAGACGAAGGAGCCGCAAAGAAGTTATTAAGGGATGAAGAATCCCTCCATATAAATATCTCTCACTTATTTAAA | 0.273 |  | 
ACAGACGAAGGAGCCGCAAAGAAGTTATTAAGGGATGAATACTCCCACAATATAAATATCTCTCACTTATTTAAA | 0.139 |  | 
ACAGACGAAGGAGCCGCAAAGAAGTTATTAAGGGATGAATATTCCCACAATATAAATATCTCTCACTTATTTAAA | 0.178 | 0.177 | 
CGACATGTCCCGCTTCTTTCATTAATCAGTTATCAACTGTTTTGCTATATACATTTACCTTTTAAGAGGAGGAAT |  |  | cleaved RNA product abundance [3]: 0.307
ACAGACGAAGGAGCCGCAAAGAAGTTATTAAGGGATGAATAAACCCTCTATATAAATATCTCTCACTTATTTAAA |  | 0.151 | 
ACAGACGAAGGAGCCGCAAAGAAATTATTAAGGGATGAATAATCTCTCAATATAAATATCTCTCACTTATTTAAA | 0.476 |  | 
CGACATGTCCCGCTTCTTTCATTAATCCCTTAGCAACTGTTTTGCTATATACACTTAACTTTTAAGAGGAGGAAT |  |  | cleaved RNA product abundance [3]: 0.255
ACAGACGAAGGAGCCGCAAAGAACTTATTAAGGGATAAATAATCCCTCAATATAAATATCTCTCACTTATTTAAA | 0.477 | 0.556 | 
CGACATGTCCCGCTTCTTTCATTAATCCGTTAGCAACTGTTATGGTATATACATTTACCTTTTAAGAGGAGGAAT |  |  | cleaved RNA product abundance [3]: 0.161
ACAGACGAAGGAGCCGCAAAGAAGTTATTAAGGGATGAAGCATCCCTCAATATAAATATCTCTCACTTATTTAAA | 0.748 |  | 
CGACATGTCCCGCTTCTTTCATTAATCCGTTAGCAACTGTTTTGCTATATACATTTACCCTTTTAAGAGGAGGAA |  |  | cleaved RNA product abundance [3]: 0.756
CGACATGTCCCGCTTCTTTCATTAATCCGTTAGCAACTATTTTGCTATCTACATTTACCTTTTAAGAGGAGGAAT |  |  | cleaved RNA product abundance [3]: 0.108
